Read-outs that look alike come from different tables or passages of the source.
Tests used:
Test in all cases: cryo-EM structure
[1] = biological target: bovine calmodulin (bovine, UniProt P62157 1-149)
[2] = biological target: the molecule itself
[3] = biological target: the molecule itself; remark: listed apart in the source

Binder | binding result [1] | stoichiometry N [2] | stoichiometry N [3]
rabbit TRPV5 full length channel (1-730) (natural protein) MGACPPKAKGPWAQLQKLLISWPVGEQDWEQYRDRVNMLQQERIRDSPLLQAAKENDLRLLKILLLNQSCDFQQRGAVGETALHVAALYDNLEAATLLMEAAPELAKEPALCEPFVGQTALHIAVMNQNLNLVRALLARGASVSARATGAAFRRSPHNLIYYGEHPLSFAACVGSEEIVRLLIEHGADIRAQDSLGNTVLHILILQPNKTFACQMYNLLLSYDEHSDHLQSLELVPNHQGLTPFKLAGVEGNTVMFQHLMQKRKHVQWTCGPLTSTLYDLTEIDSWGEELSFLELVVSSKKREARQILEQTPVKELVSFKWKKYGRPYFCVLASLYILYMICFTTCCIYRPLKLRDDNRTDPRDITILQQKLLQEAYVTHQDNIRLVGELVTVTGAVIILLLEIPDIFRVGASRYFGQTILGGPFHVIIITYASLVLLTMVMRLTNMNGEVVPLSFALVLGWCSVMYFARGFQMLGPFTIMIQKMIFGDLMRFCWLMAVVILGFASAFHITFQTEDPNNLGEFSDYPTALFSTFELFLTIIDGPANYSVDLPFMYCITYAAFAIIATLLMLNLFIAMMGDTHWRVAQERDELWRAQVVATTVMLERKMPRFLWPRSGICGYEYGLGDRWFLRVENHHDQNPLRVLRYVEAFKCSDKEDGQEQLSEKRPSTVESGMLSRASVAFQTPSLSRTTSQSSNSHRGWEILRRNTLGHLNLGLDLGEGDGEEVYHF | binds | 4 | –
full length TRPV5 with a W583A point mutation (natural protein) MGACPPKAKGPWAQLQKLLISWPVGEQDWEQYRDRVNMLQQERIRDSPLLQAAKENDLRLLKILLLNQSCDFQQRGAVGETALHVAALYDNLEAATLLMEAAPELAKEPALCEPFVGQTALHIAVMNQNLNLVRALLARGASVSARATGAAFRRSPHNLIYYGEHPLSFAACVGSEEIVRLLIEHGADIRAQDSLGNTVLHILILQPNKTFACQMYNLLLSYDEHSDHLQSLELVPNHQGLTPFKLAGVEGNTVMFQHLMQKRKHVQWTCGPLTSTLYDLTEIDSWGEELSFLELVVSSKKREARQILEQTPVKELVSFKWKKYGRPYFCVLASLYILYMICFTTCCIYRPLKLRDDNRTDPRDITILQQKLLQEAYVTHQDNIRLVGELVTVTGAVIILLLEIPDIFRVGASRYFGQTILGGPFHVIIITYASLVLLTMVMRLTNMNGEVVPLSFALVLGWCSVMYFARGFQMLGPFTIMIQKMIFGDLMRFCWLMAVVILGFASAFHITFQTEDPNNLGEFSDYPTALFSTFELFLTIIDGPANYSVDLPFMYCITYAAFAIIATLLMLNLFIAMMGDTHARVAQERDELWRAQVVATTVMLERKMPRFLWPRSGICGYEYGLGDRWFLRVENHHDQNPLRVLRYVEAFKCSDKEDGQEQLSEKRPSTVESGMLSRASVAFQTPSLSRTTSQSSNSHRGWEILRRNTLGHLNLGLDLGEGDGEEVYHF | – | – | 4
rabbit TRPV5 with a C-terminal truncation (1-660) (domain or fragment) MGACPPKAKGPWAQLQKLLISWPVGEQDWEQYRDRVNMLQQERIRDSPLLQAAKENDLRLLKILLLNQSCDFQQRGAVGETALHVAALYDNLEAATLLMEAAPELAKEPALCEPFVGQTALHIAVMNQNLNLVRALLARGASVSARATGAAFRRSPHNLIYYGEHPLSFAACVGSEEIVRLLIEHGADIRAQDSLGNTVLHILILQPNKTFACQMYNLLLSYDEHSDHLQSLELVPNHQGLTPFKLAGVEGNTVMFQHLMQKRKHVQWTCGPLTSTLYDLTEIDSWGEELSFLELVVSSKKREARQILEQTPVKELVSFKWKKYGRPYFCVLASLYILYMICFTTCCIYRPLKLRDDNRTDPRDITILQQKLLQEAYVTHQDNIRLVGELVTVTGAVIILLLEIPDIFRVGASRYFGQTILGGPFHVIIITYASLVLLTMVMRLTNMNGEVVPLSFALVLGWCSVMYFARGFQMLGPFTIMIQKMIFGDLMRFCWLMAVVILGFASAFHITFQTEDPNNLGEFSDYPTALFSTFELFLTIIDGPANYSVDLPFMYCITYAAFAIIATLLMLNLFIAMMGDTHWRVAQERDELWRAQVVATTVMLERKMPRFLWPRSGICGYEYGLGDRWFLRVENHHDQNPLRVLRYVEAFKCSDKEDGQ | – | – | 4
